Results from article doi:10.1101/553511 (bioRxiv, 2019).

B1: KAP1 full length protein (KAP1 FL, 1-835) (natural protein)
chain: MAASAAAASAAAASAASGSPGPGEGSAGGEKRSTAPSAAASASASAAASSPAGGGAEALELLEHCGVCRERLRPEREPRLLPCLHSACSACLGPAAPAAANSSGDGGAAGDGTVVDCPVCKQQCFSKDIVENYFMRDSGSKAATDAQDANQCCTSCEDNAPATSYCVECSEPLCETCVEAHQRVKYTKDHTVRSTGPAKSRDGERTVYCNVHKHEPLVLFCESCDTLTCRDCQLNAHKDHQYQFLEDAVRNQRKLLASLVKRLGDKHATLQKSTKEVRSSIRQVSDVQKRVQVDVKMAILQIMKELNKRGRVLVNDAQKVTEGQQERLERQHWTMTKIQKHQEHILRFASWALESDNNTALLLSKKLIYFQLHRALKMIVDPVEPHGEMKFQWDLNAWTKSAEAFGKIVAERPGTNSTGPAPMAPPRAPGPLSKQGSGSSQPMEVQEGYGFGSGDDPYSSAEPHVSGVKRSRSGEGEVSGLMRKVPRVSLERLDLDLTADSQPPVFKVFPGSTTEDYNLIVIERGAAAAATGQPGTAPAGTPGAPPLAGMAIVKEEETEAAIGAPPTATEGPETKPVLMALAEGPGAEGPRLASPSGSTSSGLEVVAPEGTSAPGGGPGTLDDSATICRVCQKPGDLVMCNQCEFCFHLDCHLPALQDVPGEEWSCSLCHVLPDLKEEDGSLSLDGADSTGVVAKLSPANQRKCERVLLALFCHEPCRPLHQLATDSTFSLDQPGGTLDLTLIRARLQEKLSPPYSSPQEFAQDVGRMFKQFNKLTEDKADVQSIIGLQRFFETRMNEAFGDTKFSAVLVEPPPMSLPGAGLSSQELSGGPGDGP
B2: KAP1 RBCC domain (RBCC, 23-418) (domain or fragment)
chain: GEGSAGGEKRSTAPSAAASASASAAASSPAGGGAEALELLEHCGVCRERLRPEREPRLLPCLHSACSACLGPAAPAAANSSGDGGAAGDGTVVDCPVCKQQCFSKDIVENYFMRDSGSKAATDAQDANQCCTSCEDNAPATSYCVECSEPLCETCVEAHQRVKYTKDHTVRSTGPAKSRDGERTVYCNVHKHEPLVLFCESCDTLTCRDCQLNAHKDHQYQFLEDAVRNQRKLLASLVKRLGDKHATLQKSTKEVRSSIRQVSDVQKRVQVDVKMAILQIMKELNKRGRVLVNDAQKVTEGQQERLERQHWTMTKIQKHQEHILRFASWALESDNNTALLLSKKLIYFQLHRALKMIVDPVEPHGEMKFQWDLNAWTKSAEAFGKIVAERPGTNST
B3: ΔKAP1 (23-812) (domain or fragment)
chain: GEGSAGGEKRSTAPSAAASASASAAASSPAGGGAEALELLEHCGVCRERLRPEREPRLLPCLHSACSACLGPAAPAAANSSGDGGAAGDGTVVDCPVCKQQCFSKDIVENYFMRDSGSKAATDAQDANQCCTSCEDNAPATSYCVECSEPLCETCVEAHQRVKYTKDHTVRSTGPAKSRDGERTVYCNVHKHEPLVLFCESCDTLTCRDCQLNAHKDHQYQFLEDAVRNQRKLLASLVKRLGDKHATLQKSTKEVRSSIRQVSDVQKRVQVDVKMAILQIMKELNKRGRVLVNDAQKVTEGQQERLERQHWTMTKIQKHQEHILRFASWALESDNNTALLLSKKLIYFQLHRALKMIVDPVEPHGEMKFQWDLNAWTKSAEAFGKIVAERPGTNSTGPAPMAPPRAPGPLSKQGSGSSQPMEVQEGYGFGSGDDPYSSAEPHVSGVKRSRSGEGEVSGLMRKVPRVSLERLDLDLTADSQPPVFKVFPGSTTEDYNLIVIERGAAAAATGQPGTAPAGTPGAPPLAGMAIVKEEETEAAIGAPPTATEGPETKPVLMALAEGPGAEGPRLASPSGSTSSGLEVVAPEGTSAPGGGPGTLDDSATICRVCQKPGDLVMCNQCEFCFHLDCHLPALQDVPGEEWSCSLCHVLPDLKEEDGSLSLDGADSTGVVAKLSPANQRKCERVLLALFCHEPCRPLHQLATDSTFSLDQPGGTLDLTLIRARLQEKLSPPYSSPQEFAQDVGRMFKQFNKLTEDKADVQSIIGLQRFFETRMNEAFGDTKFSAVLVEP

Target: the molecule itself
Assay: SEC-MALS

Stoichiometry N, 2:
B1, B2, B3
